Results as given in publication doi:10.1101/2025.07.08.663703, “Recruitment of Mre11 to recombination sites during meiosis” (bioRxiv, 2025).

Assays:
[1] = system: plasmid DNA (pUC19); assay: In vitro condensation of Mre11 truncations with plasmid DNA; conditions: eGFP-tagged protein, 200 nM Mre11 for ΔIDR and ΔC49
Description: Proteins were diluted to a 10× stock of their appropriate working concentrations in their respective storage buffers. Reactions were performed in a buffer containing 25 mM HEPES-HCl (pH 7.5), 2 mM DTT, 1 mg/ml BSA, 5% glycerol, 5 mM MgCl2, 5% PEG-3350, and NaCl. Considering the salt contributed by the protein dilution buffer, final concentration of NaCl in a reaction was adjusted to 120 mM. Unless specified otherwise, all reactions contained 400 nM ^Alexa488Mre11 or 100 nM ^eGFPMRX. A typical 20 μL binding reaction contained 2 μL protein of 10× stock of indicated concentration, 10 μL of 2× reaction buffer, and 150 ng of supercoiled pUC19 (5.7 nM). Typical reactions were assembled at 30°C for 30 mins with gentle mixing every 5 mins, unless mentioned otherwise. 5 μL was dropped onto a microscope slide and covered with a coverslip. All images were captured on a Zeiss Axio Observer with a 100×/1.4 NA oil immersion objective except for images provided in Figure 4G which were captured on Leica Stellaris DMI 8 confocal microscope with a 63x/1.2 NA water immersion objective. Images were analyzed with ImageJ using a custom-made script. […] Masked foci were counted and the intensity inside the focus mask was integrated. […] Data were analyzed using Graphpad Prism 10.4.0.

[2] = system: pUC19 plasmid; assay: Gel shift assay of Mre11 and truncations; format: binding
Description: Proteins were diluted to their appropriate working concentrations in their respective storage buffers. […] Reactions were assembled at 30°C for 30 mins and resolved in a 1% agarose (SeaKem LE Agarose, Lonza) at 60 V for 120 mins at 4°C. Gels were stained with SYBR Gold Nucleic Acid Gel Stain (S11497, Invitrogen) for 40 mins and visualized with Amersham Typhoon biomolecular imager (Cytiva).

[3] = system: Mer2; assay: In vitro colocalization of Mre11 with Mer2 condensates; format: binding, S. cerevisiae; conditions: 200 nM Alexa594Mer2 and eGFPMre11, assembled separately on DNA then mixed 1:1 for 30 min
Description: Proteins were diluted to a 10× stock of their appropriate working concentrations in their respective storage buffers. […] Unless specified otherwise, all reactions contained 400 nM ^Alexa488Mre11 or 100 nM ^eGFPMRX. A typical 20 μL binding reaction contained 2 μL protein of 10× stock of indicated concentration, 10 μL of 2× reaction buffer, and 150 ng of supercoiled pUC19 (5.7 nM). Typical reactions were assembled at 30°C for 30 mins with gentle mixing every 5 mins, unless mentioned otherwise. 5 μL was dropped onto a microscope slide and covered with a coverslip. All images were captured on a Zeiss Axio Observer with a 100×/1.4 NA oil immersion objective except for images provided in Figure 4G which were captured on Leica Stellaris DMI 8 confocal microscope with a 63x/1.2 NA water immersion objective. Images were analyzed with ImageJ using a custom-made script. In brief, 129.24 × 129.24-μm (2048 × 2048-pixel) images were thresholded to mean intensity of the background plus three times the standard deviation of the background. Masked foci were counted and the intensity inside the focus mask was integrated. Data points represent averages of at least 8–10 images per sample. Data were analyzed using Graphpad Prism 10.4.0.

[4] = system: Mer2; assay: Co-expression NiNTA pulldown of MBP-Mre11-C49 (prey) with HisSUMO-Mer2 (bait); format: binding, S. cerevisiae; conditions: co-expression in E. coli, anti-MBP elution/input signal normalized to wild type, at least seven independent samples
From the text: The vector for expression of ^MBPMre11-C49 and ^HisSUMOMer2 (pCCB1040) was based on a pET-Duet1 vector with the sequence coding for ^MBPMre11-C49 cloned within the first position (SacI site) and the sequence coding for ^HisSUMOMer2 cloned at the second position (XhoI site). The EQEK mutations and LLK mutations were introduced by PCR amplification of pCCB1040 with primers cb1561 and cb1562, and pp84 and pp85, followed by phosphorylation and self-ligation to yield plasmids pry59 and pry61, respectively.
Wild-type and mutant MBP-tagged Mre11-C49 and HisSUMO-tagged Mer2 were co-expressed in 50 mL of E. coli BL21 cultures and purified by affinity chromatography on Ni-NTA resin following a procedure similar to that described above. Briefly, cells were lysed by sonication and centrifuged at maximum speed for 30 mins at 4°C on a table-top centrifuge. A small fraction of the supernatant was collected as ‘Input’ and the remainder was incubated with 120 μL Ni-NTA resin, pre-equilibrated with wash buffer (25 mM HEPES pH 7.5, 20 mM imidazole, 0.1 mM DTT, 0.1 mM PMSF, 10% glycerol), for 1 hour on a rotating wheel at 4°C. The resin was washed twice with 2 ml in batch and five times with 2 ml on column before eluting with 250 μL of 500 mM imidazole in wash buffer. […]

Molecule	condensate formation in vitro [1]	species of reduced electrophoretic mobility ([2]; 1 nM pUC19, higher protein concentration)	colocalization with Mer2 [3]	DNA binding ([2]; 1 nM pUC19, 25 mM HEPES pH 7.5, 5 mM EDTA, 100 mM NaCl, 30°C 30 min, two independent experiments for truncations)	interaction of Mre11-C49 and Mer2 in pulldown (anti-MBP immunoblot) [4]
Mre11-ΔC49: Mre11 with C-terminal 49 residues (residues 644–692) deleted (protein, UniProt P32829 1-643, looked up, fragment) MDYPDPDTIRILITTDNHVGYNENDPITGDDSWKTFHEVMMLAKNNNVDMVVQSGDLFHVNKPSKKSLYQVLKTLRLCCMGDKPCELELLSDPSQVFHYDEFTNVNYEDPNFNISIPVFGISGNHDDASGDSLLCPMDILHATGLINHFGKVIESDKIKVVPLLFQKGSTKLALYGLAAVRDERLFRTFKDGGVTFEVPTMREGEWFNLMCVHQNHTGHTNTAFLPEQFLPDFLDMVIWGHEHECIPNLVHNPIKNFDVLQPGSSVATSLCEAEAQPKYVFILDIKYGEAPKMTPIPLETIRTFKMKSISLQDVPHLRPHDKDATSKYLIEQVEEMIRDANEETKQKLADDGEGDMVAELPKPLIRLRVDYSAPSNTQSPIDYQVENPRRFSNRFVGRVANGNNVVQFYKKRSPVTRSKKSGINGTSISDRDVEKLFSESGGELEVQTLVNDLLNKMQLSLLPEVGLNEAVKKFVDKDEKTALKEFISHEISNEVGILSTNEEFLRTDDAEEMKALIKQVKRANSVRPTPPKENDETNFAFNGNGLDSFRSSNREVRTGSPDITQSHVDNESRITHISQAESSKPTSKPKRVRTATKKKIPAFSDSTVISDAENELGDNNDAQDDVDIDENDIIMVSTDEEDA	strongly reduced Mre11 foci intensity	absent	strongly reduced colocalization as compared to wild-type Mre11		
Mre11 (protein, left off: Gal4 activation domain (from the vector pGAD-C1), end not stated, kept) MDYPDPDTIRILITTDNHVGYNENDPITGDDSWKTFHEVMMLAKNNNVDMVVQSGDLFHVNKPSKKSLYQVLKTLRLCCMGDKPCELELLSDPSQVFHYDEFTNVNYEDPNFNISIPVFGISGNHDDASGDSLLCPMDILHATGLINHFGKVIESDKIKVVPLLFQKGSTKLALYGLAAVRDERLFRTFKDGGVTFEVPTMREGEWFNLMCVHQNHTGHTNTAFLPEQFLPDFLDMVIWGHEHECIPNLVHNPIKNFDVLQPGSSVATSLCEAEAQPKYVFILDIKYGEAPKMTPIPLETIRTFKMKSISLQDVPHLRPHDKDATSKYLIEQVEEMIRDANEETKQKLADDGEGDMVAELPKPLIRLRVDYSAPSNTQSPIDYQVENPRRFSNRFVGRVANGNNVVQFYKKRSPVTRSKKSGINGTSISDRDVEKLFSESGGELEVQTLVNDLLNKMQLSLLPEVGLNEAVKKFVDKDEKTALKEFISHEISNEVGILSTNEEFLRTDDAEEMKALIKQVKRANSVRPTPPKENDETNFAFNGNGLDSFRSSNREVRTGSPDITQSHVDNESRITHISQAESSKPTSKPKRVRTATKKKIPAFSDSTVISDAENELGDNNDAQDDVDIDENDIIMVSTDEEDASYGLLNGRKTKTKTRPAASTKTASRRGKGRASRTPKTDILGSLLAKKRK			nearly absolute colocalization		
Mre11^IDR: eGFP-tagged Mre11-IDR (524-677) (protein, UniProt P32829 524-677, looked up, fragment, eGFP tag) NSVRPTPPKENDETNFAFNGNGLDSFRSSNREVRTGSPDITQSHVDNESRITHISQAESSKPTSKPKRVRTATKKKIPAFSDSTVISDAENELGDNNDAQDDVDIDENDIIMVSTDEEDASYGLLNGRKTKTKTRPAASTKTASRRGKGRASRT	failed to form condensates			reduced DNA binding as compared to the WT or Mre11^ΔIDR	
Mer2-EQEK: Mer2 with residues E50, Q54, E57, and K61 mutated to alanine (protein, left off: His, end not stated, kept | SUMO, end not stated, kept, Mer2 with residues E50, Q54, E57, and K61 mutated to alanine) MVARGRTDEISTDVSEANSEHSLMITETSSPFRSIFSHSGKVANAGALEASDKAILAWAGALELESMELRENSDKLIKVLNENSKTLCKSLNKFNQLLEQDAATNGNVKTLIKDLASQIENQLDKVSTAMLSKGDEKKTKSDSSYRQVLVEEISRYNSKITRHVTNKQHETEKSMRCTQEMLFNVGSQLEDVHKVLLSLSKDMHSLQTRQTALEMAFREKADHAYDRPDVSLNGTTLLHDMDEAHDKQRKKSVPPPRMMVTRSMKRRRSSSPTLSTSQNHNSEDNDDASHRLKRAARTIIPWEELRPDTLESEL					strongly decreased the interaction between the two partners
